B1: Twister Ribozyme (parent)
chain: AACACUGCCAAUGCCGGUCCCAAGCCCGGAUAAAAGUGGAGGGGGCGG

Variants of: B1
Experiment: self-cleavage, relative activity (ratio to wild type); higher = more cleavage; co-transcriptional

Row | Variant | self-cleavage
1 | AACACUGCCAAUGCCGGUCCCAAGCCCGGAUAAAAUUGGAGGGGCCGG | 0.199
2 | AACACUGCCAAUGCCGGUCCCAAGCCCGGAUAAAAUUGGAGGGGUCGG | 0.315
3 | AACACUGCCAAUGCCGGUCCCAAGCCCGGAUAAAUGUGCAGGGGGCGG | 0.104
4 | AACACUGCCAAUGCCGGUCCCAAGCCCGGAUAAAAGAAGAGGGGGCGG | 0.821
5 | AACACUGCCAAUGCCGGUCCCAAGCCCGGAUAAAAGACGAGGGGGCGG | 0.551
6 | AACACUGCCAAUGCCGGUCCCAAGCCCGGAUAAAAGAUGAGGGGGCGG | 0.38
7 | AACACUGCCAAUGCCGGUCCCAAGCCCGGAUAAAAAUAGAGGGGGCGG | 0.359
8 | AACACUGCCAAUGCCGGUCCCAAGCCCGGAUAAAAAUUGAGGGGGCGG | 0.193
9 | AACACUGCCAAUGCCGGUCCCAAGCCCGGAUAAAAGAGGAGGGGGCAG | 0.457
10 | AACACUGCCAAUGCCGGUCCCAAGCCCGGAUAAAUGUGGAGGGGGAGG | 1.04
11 | AACACUGCCAAUGCCGGUCCCAAGCCCGGAUAAAUGUGGAGGGGGUGG | 0.894
12 | AACACUGCCAAUGCCGGUCCCAAGCCCGGAUAAAUGUGGAGGGGGGGG | 0.927
13 | AACACUGCCAAUGCCGGUCCCAAGCCCGGAUAAAUGUGGAGGCGGCGG | 0.208
14 | AACACUGCCAAUGCCGGUCCCAAGCCCGGAUAAAUGUGGAGGUGGCGG | 0.352
15 | AACACUGCCAAUGCCGGUCCCAAGCCCGGAUAAAUGUGGAGGAGGCGG | 0.25
16 | AACACUGCCAAUGCCGGUCCCAAGCCCGGAUAAAAAUGGUGGGGGCGG | 0.124
17 | AACACUGCCAAUGCCGGUCCCAAGCCCGGAUAAAAAUGGGGGGGGCGG | 0.144
18 | AACACUGCCAAUGCCGGUCCCAAGCCCGGAUAAAAGAGGAGGUGGCGG | 0.186
19 | AACACUGCCAAUGCCGGUCCCAAGCCCGGAUAAAACUGGAGGGGUCGG | 0.257
20 | AACACUGCCAAUGCCGGUCCCAAGCCCGGAUAAAACUGGAGGGGCCGG | 0.201
21 | AACACUGCCAAUGCCGGUCCCAAGCCCGGAUAAAAGAGUAGGGGGCGG | 0.159
22 | AACACUGCCAAUGCCGGUCCCAAGCCCGGAUAAAAGAGAAGGGGGCGG | 0.173

Row | Variant | self-cleavage
23 | AACACUGCCAAUGCCGGUCCCAAGCCCGGAUAAAAGAGGAGGGGGCGC | 0.865
24 | AACACUGCCAAUGCCGGUCCCAAGCCCGGAUAAAAGAGGAGGGGGCGA | 0.797
25 | AACACUGCCAAUGCCGGUCCCAAGCCCGGAUAAAUGUGGACGGGGCGG | 0.206
26 | AACACUGCCAAUGCCGGUCCCAAGCCCGGAUAAAUGUGGAUGGGGCGG | 0.693
27 | AACACUGCCAAUGCCGGUCCCAAGCCCGGAUAAAAGAGGAGGGGCCGG | 0.323
28 | AACACUGCCAAUGCCGGUCCCAAGCCCGGAUAAAUGUGGAGGGGGCGU | 1.17
29 | AACACUGCCAAUGCCGGUCCCAAGCCCGGAUAAAUGUGGAGGGGGCGC | 1.07
30 | AACACUGCCAAUGCCGGUCCCAAGCCCGGAUAAAAGCGGGGGGGGCGG | 0.161
31 | AACACUGCCAAUGCCGGUCCCAAGCCCGGAUAAAAGCGGUGGGGGCGG | 0.0912
32 | AACACUGCCAAUGCCGGUCCCAAGCCCGGAUAAAAGCGGCGGGGGCGG | 0.0942
33 | AACACUGCCAAUGCCGGUCCCAAGCCCGGAUAAAAUUGGAGGGGGGGG | 0.313
34 | AACACUGCCAAUGCCGGUCCCAAGCCCGGAUAAAAUUGGAGGGGGUGG | 0.408
35 | AACACUGCCAAUGCCGGUCCCAAGCCCGGAUAAAAUUGGAGGGGGAGG | 0.31
36 | AACACUGCCAAUGCCGGUCCCAAGCCCGGAUAAAAAUGUAGGGGGCGG | 0.12
37 | AACACUGCCAAUGCCGGUCCCAAGCCCGGAUAAAAUGGGAGGGGGCGG | 0.37
38 | AACACUGCCAAUGCCGGUCCCAAGCCCGGAUAAAAUUAGAGGGGGCGG | 0.452
39 | AACACUGCCAAUGCCGGUCCCAAGCCCGGAUAAAAUUUGAGGGGGCGG | 0.167
40 | AACACUGCCAAUGCCGGUCCCAAGCCCGGAUAAAAUUGGAGGGAGCGG | 0.717
41 | AACACUGCCAAUGCCGGUCCCAAGCCCGGAUAAAAUUGGAGGGCGCGG | 0.372
42 | AACACUGCCAAUGCCGGUCCCAAGCCCGGAUAAAAUUGGAGGGUGCGG | 0.355
43 | AACACUGCCAAUGCCGGUCCCAAGCCCGGAUAAAAUUGGAGGAGGCGG | 0.102
44 | AACACUGCCAAUGCCGGUCCCAAGCCCGGAUAAAAUUGGAGGCGGCGG | 0.124

Row | Variant | self-cleavage
45 | AACACUGCCAAUGCCGGUCCCAAGCCCGGAUAAAUGUGGUGGGGGCGG | 0.253
46 | AACACUGCCAAUGCCGGUCCCAAGCCCGGAUAAAUGUGGGGGGGGCGG | 0.133
47 | AACACUGCCAAUGCCGGUCCCAAGCCCGGAUAAAUGUGGAGAGGGCGG | 0.376
48 | AACACUGCCAAUGCCGGUCCCAAGCCCGGAUAAAUGUGGAGCGGGCGG | 0.539
49 | AACACUGCCAAUGCCGGUCCCAAGCCCGGAUAAAAGAGGAAGGGGCGG | 0.16
50 | AACACUGCCAAUGCCGGUCCCAAGCCCGGAUAAAAGAGGAUGGGGCGG | 0.115
51 | AACACUGCCAAUGCCGGUCCCAAGCCCGGAUAAAAGAGGACGGGGCGG | 0.178
52 | AACACUGCCAAUGCCGGUCCCAAGCCCGGAUAAAAAUGGACGGGGCGG | 0.133
53 | AACACUGCCAAUGCCGGUCCCAAGCCCGGAUAAAAAUGGAAGGGGCGG | 0.13
54 | AACACUGCCAAUGCCGGUCCCAAGCCCGGAUAAAACUGGAGAGGGCGG | 0.134
55 | AACACUGCCAAUGCCGGUCCCAAGCCCGGAUAAAACUGGAGCGGGCGG | 0.189
56 | AACACUGCCAAUGCCGGUCCCAAGCCCGGAUAAAAAUGGAGGGUGCGG | 0.791
57 | AACACUGCCAAUGCCGGUCCCAAGCCCGGAUAAAAAUGGAGGGCGCGG | 0.762
58 | AACACUGCCAAUGCCGGUCCCAAGCCCGGAUAAAAAUGGAGGGAGCGG | 0.8
59 | AACACUGCCAAUGCCGGUCCCAAGCCCGGAUAAAACUGGAGGGAGCGG | 0.7
60 | AACACUGCCAAUGCCGGUCCCAAGCCCGGAUAAAAUUGGAGGGGGCGU | 0.454
61 | AACACUGCCAAUGCCGGUCCCAAGCCCGGAUAAAAGAGGAGCGGGCGG | 0.252
62 | AACACUGCCAAUGCCGGUCCCAAGCCCGGAUAAAAGAGGAGUGGGCGG | 0.153
63 | AACACUGCCAAUGCCGGUCCCAAGCCCGGAUAAAAGAGGAGAGGGCGG | 0.129
64 | AACACUGCCAAUGCCGGUCCCAAGCCCGGAUAAAAAUGGAGGCGGCGG | 0.152
65 | AACACUGCCAAUGCCGGUCCCAAGCCCGGAUAAAAUUGCAGGGGGCGG | 0.15
66 | AACACUGCCAAUGCCGGUCCCAAGCCCGGAUAAAAUUGUAGGGGGCGG | 0.147

Row | Variant | self-cleavage
67 | AACACUGCCAAUGCCGGUCCCAAGCCCGGAUAAAAUUGAAGGGGGCGG | 0.172
68 | AACACUGCCAAUGCCGGUCCCAAGCCCGGAUAAAUUUGGAGGGGGCGG | 0.472
69 | AACACUGCCAAUGCCGGUCCCAAGCCCGGAUAAAACUGGUGGGGGCGG | 0.149
70 | AACACUGCCAAUGCCGGUCCCAAGCCCGGAUAAAACUGGAGGGGGCGU | 0.455
71 | AACACUGCCAAUGCCGGUCCCAAGCCCGGAUAAAAAUGGAGGGGGCUG | 0.76
72 | AACACUGCCAAUGCCGGUCCCAAGCCCGGAUAAAAAUGGAGGGGGCAG | 0.557
73 | AACACUGCCAAUGCCGGUCCCAAGCCCGGAUAAAACUGGAGGGGGCAG | 0.183
74 | AACACUGCCAAUGCCGGUCCCAAGCCCGGAUAAAUGUGGAGGGGCCGG | 0.723
75 | AACACUGCCAAUGCCGGUCCCAAGCCCGGAUAAAUGUGGAGGGGUCGG | 0.812
76 | AACACUGCCAAUGCCGGUCCCAAGCCCGGAUAAAAAUGGAGCGGGCGG | 0.168
77 | AACACUGCCAAUGCCGGUCCCAAGCCCGGAUAAAAAUGGAGUGGGCGG | 0.128
78 | AACACUGCCAAUGCCGGUCCCAAGCCCGGAUAAAACAGGAGGGGGCGG | 0.107
79 | AACACUGCCAAUGCCGGUCCCAAGCCCGGAUAAAACGGGAGGGGGCGG | 0.297
80 | AACACUGCCAAUGCCGGUCCCAAGCCCGGAUAAAACCGGAGGGGGCGG | 0.123
81 | AACACUGCCAAUGCCGGUCCCAAGCCCGGAUAAAAAUGGAGGGGGCGU | 0.809
82 | AACACUGCCAAUGCCGGUCCCAAGCCCGGAUAAAAAUGGAGGGGGCGC | 0.99
83 | AACACUGCCAAUGCCGGUCCCAAGCCCGGAUAAAAGAGGAGGGGGGGG | 0.748
84 | AACACUGCCAAUGCCGGUCCCAAGCCCGGAUAAAAGAGGAGGGGGUGG | 0.886
85 | AACACUGCCAAUGCCGGUCCCAAGCCCGGAUAAAAACGGAGGGGGCGG | 0.156
86 | AACACUGCCAAUGCCGGUCCCAAGCCCGGAUAAAUGUGGAGGGAGCGG | 0.843
87 | AACACUGCCAAUGCCGGUCCCAAGCCCGGAUAAAAGAGGAGGGAGCGG | 0.873
88 | AACACUGCCAAUGCCGGUCCCAAGCCCGGAUAAAAGAGGAGGGUGCGG | 0.755

Row | Variant | self-cleavage
89 | AACACUGCCAAUGCCGGUCCCAAGCCCGGAUAAAAGAGGAGGGCGCGG | 0.821
90 | AACACUGCCAAUGCCGGUCCCAAGCCCGGAUAAAAUUGGAGAGGGCGG | 0.123
91 | AACACUGCCAAUGCCGGUCCCAAGCCCGGAUAAAAUUGGAGCGGGCGG | 0.16
92 | AACACUGCCAAUGCCGGUCCCAAGCCCGGAUAAAUGUGGAGGGGGCCG | 0.694
93 | AACACUGCCAAUGCCGGUCCCAAGCCCGGAUAAAACUGGAGGAGGCGG | 0.134
94 | AACACUGCCAAUGCCGGUCCCAAGCCCGGAUAAAACUGGAGGUGGCGG | 0.116
95 | AACACUGCCAAUGCCGGUCCCAAGCCCGGAUAAAACUAGAGGGGGCGG | 0.459
96 | AACACUGCCAAUGCCGGUCCCAAGCCCGGAUAAAACUCGAGGGGGCGG | 0.217
97 | AACACUGCCAAUGCCGGUCCCAAGCCCGGAUAAAAAUGGAGGGGCCGG | 0.256
98 | AACACUGCCAAUGCCGGUCCCAAGCCCGGAUAAAUGCGGAGGGGGCGG | 0.633
99 | AACACUGCCAAUGCCGGUCCCAAGCCCGGAUAAAUGGGGAGGGGGCGG | 0.69
100 | AACACUGCCAAUGCCGGUCCCAAGCCCGGAUAAAAAUGGAGGGGGGGG | 0.7
101 | AACACUGCCAAUGCCGGUCCCAAGCCCGGAUAAAAAUGGAGGGGGUGG | 0.766
102 | AACACUGCCAAUGCCGGUCCCAAGCCCGGAUAAAAGCGGAGGGGGAGG | 0.71
103 | AACACUGCCAAUGCCGGUCCCAAGCCCGGAUAAAAUUGGCGGGGGCGG | 0.122
104 | AACACUGCCAAUGCCGGUCCCAAGCCCGGAUAAAAUUGGUGGGGGCGG | 0.141
105 | AACACUGCCAAUGCCGGUCCCAAGCCCGGAUAAAACUGGAGGGGGGGG | 0.45
106 | AACACUGCCAAUGCCGGUCCCAAGCCCGGAUAAAACUGGAGGGGGAGG | 0.367
107 | AACACUGCCAAUGCCGGUCCCAAGCCCGGAUAAAUGUUGAGGGGGCGG | 0.942
108 | AACACUGCCAAUGCCGGUCCCAAGCCCGGAUAAAUGUAGAGGGGGCGG | 0.925

Source: the RNAGym collection of RNA variant scans (doi:10.7554/elife.80360)
